Drawing on patent US20190064177A1, “INCORPORATING COMPETITIVE BINDING INFORMATION INTO MOLECULAR ARRAY ANALYSIS TO GENERATE FUNCTION NETWORKS OF INTERACTIONS” (ARIZONA BOARD OF REGENTS ON BEHALF OF ARIZONA STATE …, priority 2017, published 2019), this text covers Meas. ratio (noFAD/FAD), noFAD/FAD and fluorescence for 33 molecules.

Experiment [1] addresses Diaphorase. The experiment in a line: peptide array, 1 uM diaphorase, measured binding without FAD / with FAD.
In experiment [2] the target is Diaphorase. The experiment in a line: peptide array, 10 uM diaphorase, binding without FAD / with FAD.
The target in experiment [3] is Diaphorase. The experiment in a line: peptide array, 1 uM labeled diaphorase, with FAD.
In experiment [4] the target is Diaphorase. The experiment in a line: peptide array, 1 uM labeled diaphorase, no FAD.
For experiment [5], the target named is Diaphorase. The experiment in a line: peptide array, 1 uM diaphorase, binding without FAD / with FAD.
Experiment [6] addresses Diaphorase. The experiment in a line: peptide array, 10 uM labeled diaphorase, no FAD; detector saturation.
Experiment [7] deals with Diaphorase. The experiment in a line: peptide array, 10 uM labeled diaphorase, with FAD.
The target in experiment [8] is Diaphorase. The experiment in a line: peptide array, 10 uM labeled diaphorase, no FAD.
Experiment [9] has as its target Diaphorase. The experiment in a line: peptide array, 10 uM labeled diaphorase, with FAD; detector saturation.

B1: … (peptide)
peptide: KEDKVFGFRFDGS
B1: the Meas. ratio (noFAD/FAD) with Diaphorase [1] is 0.7.

B2: … (peptide)
peptide: YRFPNAQSPGGSG
In the case of B2, the noFAD/FAD was 1.74 with Diaphorase [2] and 2.63 in the experiment with Diaphorase [5]. Further, the fluorescence is 2370 with Diaphorase [3], 6240 in the experiment with Diaphorase [4], > 65500 in the experiment with Diaphorase [6] and 37700 with Diaphorase [7].

B3: … (peptide)
peptide: YRNAAWFSGGSG
Consider B3, for which the noFAD/FAD with Diaphorase [2] stood at 1.51; with Diaphorase [5] it was 2.86. The fluorescence with Diaphorase [3] is 2930; with Diaphorase [4], 8370; with Diaphorase [6], > 65500; with Diaphorase [7] it was 43300.

B4: … (peptide)
peptide: DLFQLVFSGSG
As for B4, the noFAD/FAD came out at 0.499 with Diaphorase [2] and 0.641 in the experiment with Diaphorase [5]. Moreover, the fluorescence with Diaphorase [8] is 32700; in the experiment with Diaphorase [3], 9010; with Diaphorase [9], > 65500; with Diaphorase [4], 5780.

B5: … (peptide)
peptide: DANLFGYFKDGGS
With B5, the Meas. ratio (noFAD/FAD) with Diaphorase [1] stood at 0.7.

B6: … (peptide)
peptide: RLYPQGYGGSG
B6: the results for the noFAD/FAD in the experiment with Diaphorase [2] and with Diaphorase [5] were 1.06 and 2.62, respectively. Also, the fluorescence is 4540 with Diaphorase [3], 11900 with Diaphorase [4], > 65500 in the experiment with Diaphorase [6] and 61700 with Diaphorase [7].

B7: … (peptide)
peptide: YRPYGPVYNGGSG
B7: the noFAD/FAD with Diaphorase [2] turned out to be 1; with Diaphorase [5], 2.77. The fluorescence with Diaphorase [3] is 6760; in the experiment with Diaphorase [9], > 65500; with Diaphorase [4], 18700; with Diaphorase [6] it was > 65500.

B8: … (peptide)
peptide: AWVELEYQYVFEG
Regarding B8, the Meas. ratio (noFAD/FAD) with Diaphorase [1] turned out to be 0.74.

B9: … (peptide)
peptide: YRLNLKHPVGGSG
With B9, the noFAD/FAD came to 1.16 with Diaphorase [2] and 3.05 in the experiment with Diaphorase [5]. The fluorescence is 4150 with Diaphorase [3], 12700 with Diaphorase [4], > 65500 in the experiment with Diaphorase [6] and 56700 with Diaphorase [7].

B10: … (peptide)
peptide: NHLLEGAFVSEGS
For the molecule B10, the Meas. ratio (noFAD/FAD) in the experiment with Diaphorase [1] was 0.77.

B11: … (peptide)
peptide: HVYGLNLFDGSG
With B11, the Meas. ratio (noFAD/FAD) in the experiment with Diaphorase [1] worked out at 0.72.

B12: … (peptide)
peptide: ALDKLSGLWKHVG
Turning to B12, the Meas. ratio (noFAD/FAD) with Diaphorase [1] came to 0.69.

B13: … (peptide)
peptide: PRYSGQYGGSG
In the case of B13, the figures for the noFAD/FAD with Diaphorase [2] and in the experiment with Diaphorase [5] were 1.45 and 2.61, respectively. For the same molecule, the fluorescence with Diaphorase [3] is 3230; with Diaphorase [4], 8430; with Diaphorase [6], > 65500; with Diaphorase [7], 45200.

B14: … (peptide)
peptide: FLQFLGGSG
In the case of B14, the Meas. ratio (noFAD/FAD) in the experiment with Diaphorase [1] was 0.87.

B15: … (peptide)
peptide: FYNFGYQDLEDGS
Turning to B15, in the experiment with Diaphorase [1], the Meas. ratio (noFAD/FAD) was determined as 0.75.

B16: … (peptide)
peptide: RAQYAQYLFGGSG
B16: the noFAD/FAD with Diaphorase [2] was 1.18; with Diaphorase [5], 2.76. Moreover, the fluorescence was 3160 with Diaphorase [3], 8720 with Diaphorase [4], > 65500 in the experiment with Diaphorase [6] and 55400 in the experiment with Diaphorase [7].

B17: … (peptide)
peptide: RYPWNKLYKFDGSG
In the case of B17, the figures for the noFAD/FAD in the experiment with Diaphorase [2] and in the experiment with Diaphorase [5] were 1.24 and 2.8, respectively. The fluorescence was 3480 in the experiment with Diaphorase [3], 9740 in the experiment with Diaphorase [4], > 65500 with Diaphorase [6] and 53000 with Diaphorase [7].

B18: … (peptide)
peptide: RYAYFQHLGGSG
B18: the noFAD/FAD in the experiment with Diaphorase [2] amounted to 1.02; in the experiment with Diaphorase [5] it was 2.73. Moreover, the fluorescence with Diaphorase [3] was 4970; with Diaphorase [4] it was 13600; with Diaphorase [6], > 65500; with Diaphorase [7], 64100.

B19: … (peptide)
peptide: VSWVFGLGHEGGS
As for B19, the Meas. ratio (noFAD/FAD) with Diaphorase [1] amounted to 0.71.

B20: … (peptide)
peptide: PRSFGYNNVGGSG
For the molecule B20, the figures for the noFAD/FAD in the experiment with Diaphorase [2] and with Diaphorase [5] were 1.62 and 2.71, respectively. For the same molecule, the fluorescence in the experiment with Diaphorase [3] was 2530; in the experiment with Diaphorase [4], 6840; with Diaphorase [6] it was > 65500; in the experiment with Diaphorase [7], 40500.

B21: … (peptide)
peptide: PRYQNFGGGSG
For the molecule B21, the noFAD/FAD with Diaphorase [2] came out at 1.79; in the experiment with Diaphorase [5], 2.81. The fluorescence with Diaphorase [3] is 2460; with Diaphorase [4], 6910; with Diaphorase [6] it was > 65500; with Diaphorase [7], 36700.

B22: RNWYGGSG (peptide)
peptide: RNWYGGS
Consider B22, for which the noFAD/FAD in the experiment with Diaphorase [2] came to 1.35; with Diaphorase [5] it was 2.66. The fluorescence with Diaphorase [3] is 2940; in the experiment with Diaphorase [4], 7830; with Diaphorase [6] it was > 65500; with Diaphorase [7] it was 48600.

B23: … (peptide)
peptide: VLAYKLQVDGSG
With B23, in the experiment with Diaphorase [1], the Meas. ratio (noFAD/FAD) came out at 0.68.

B24: … (peptide)
peptide: RYYPAFSGGSG
With B24, the values for the noFAD/FAD with Diaphorase [2] and with Diaphorase [5] were 1 and 2.91, respectively. The fluorescence with Diaphorase [3] is 7540; in the experiment with Diaphorase [9], > 65500; in the experiment with Diaphorase [4], 21900; in the experiment with Diaphorase [6], > 65500.

B25: … (peptide)
peptide: AFNVWQYFEGGSG
As for B25, the Meas. ratio (noFAD/FAD) with Diaphorase [1] is 0.73.

B26: … (peptide)
peptide: RWRYYWKSEGSG
Regarding B26, the noFAD/FAD with Diaphorase [2] came out at 1.27; with Diaphorase [5], 2.7. The fluorescence is 4090 with Diaphorase [3], 11000 in the experiment with Diaphorase [4], > 65500 with Diaphorase [6] and 51400 in the experiment with Diaphorase [7].

B27: … (peptide)
peptide: FNKVLEYKWLFEG
Take B27: the Meas. ratio (noFAD/FAD) in the experiment with Diaphorase [1] is 0.73.

B28: … (peptide)
peptide: DYFEGQLNHLGGS
For B28, in the experiment with Diaphorase [1], the Meas. ratio (noFAD/FAD) turned out to be 0.75.

B29: … (peptide)
peptide: RQAYLFGGSG
With B29, the figures for the noFAD/FAD with Diaphorase [2] and with Diaphorase [5] were 1.02 and 3.23, respectively. For the same molecule, the fluorescence was 4480 with Diaphorase [3], 14500 with Diaphorase [4], > 65500 with Diaphorase [6] and 64000 with Diaphorase [7].

B30: … (peptide)
peptide: RWSFPAKGGSG
In the case of B30, the noFAD/FAD in the experiment with Diaphorase [2] is 1.28; with Diaphorase [5] it was 2.77. The fluorescence with Diaphorase [3] is 3610; in the experiment with Diaphorase [4] it was 10000; in the experiment with Diaphorase [6] it was > 65500; in the experiment with Diaphorase [7], 51200.

B31: … (peptide)
peptide: EGFGYLFAHVGGS
With B31, the Meas. ratio (noFAD/FAD) with Diaphorase [1] stood at 0.78.

B32: … (peptide)
peptide: GYHLFEKLYFDGS
On to B32, for which the Meas. ratio (noFAD/FAD) in the experiment with Diaphorase [1] was 0.7.

B33: … (peptide)
peptide: RWQYYNQKFGSG
Consider B33, for which the noFAD/FAD with Diaphorase [2] was 1; with Diaphorase [5], 2.88. For the same molecule, the fluorescence with Diaphorase [3] was 5460; in the experiment with Diaphorase [9], > 65500; with Diaphorase [4], 15700; with Diaphorase [6], > 65500.
